Columns and labels:
EcTrmL [1] = molecular target: T1, EcTrmL (Escherichia coli, UniProt P0AGJ7, K42E); assay: isothermal titration calorimetry, one-site model; type: binding
T1 construct: gene trmL

EcTrmL [2] = molecular target: T2, EcTrmL (Escherichia coli, UniProt P0AGJ7, R46E); assay: isothermal titration calorimetry, one-site model; type: binding
T2 construct: gene trmL

EcTrmL [3] = molecular target: T3, EcTrmL (Escherichia coli, UniProt P0AGJ7, R104E); assay: isothermal titration calorimetry, one-site model; type: binding
T3 construct: gene trmL

EcTrmL [4] = molecular target: T4, EcTrmL (Escherichia coli, UniProt P0AGJ7, R59E); assay: isothermal titration calorimetry, one-site model; type: binding
T4 construct: gene trmL

EcTrmL [5] = molecular target: T5, EcTrmL (Escherichia coli, UniProt P0AGJ7, R20E); assay: isothermal titration calorimetry, one-site model; type: binding
T5 construct: gene trmL

EcTrmL [6] = molecular target: T6, EcTrmL (Escherichia coli, UniProt P0AGJ7, R43E); assay: isothermal titration calorimetry, one-site model; type: binding
T6 construct: gene trmL

EcTrmL [7] = molecular target: T7, EcTrmL (Escherichia coli, UniProt P0AGJ7, R45E); assay: isothermal titration calorimetry, one-site model; type: binding
T7 construct: gene trmL

EcTrmL [8] = molecular target: T8, EcTrmL (Escherichia coli, UniProt P0AGJ7, R129E); assay: isothermal titration calorimetry, one-site model; type: binding
T8 construct: gene trmL

EcTrmL [9] = molecular target: T9, EcTrmL (Escherichia coli, UniProt P0AGJ7, K81E); assay: isothermal titration calorimetry, one-site model; type: binding
T9 construct: gene trmL

[10] = molecular target: the molecule itself; assay: SEC; analytical gel filtration, Superdex 75 (10/30), 20 mM Tris-HCl pH 7.5, 100 mM NaCl, 5 mM MgCl2, 5 mM beta-Me, 300 ul injected, 0.5 ml/min, against standard proteins
[11] = molecular target: the molecule itself; assay: not stated; oligomeric state of the purified Glu single mutants in solution; the method is not named for this statement

Molecule | stoichiometry N [11] | further results
Nc1ncnc2c1ncn2[C@@H]1O[C@H](CSCC[C@H](N)C(=O)O)[C@@H](O)[C@H]1O [SAH, S-adenosyl-homocysteine] | – | Kd (EcTrmL [1]): 20 µM; Kd (EcTrmL [2]): 29 µM; Kd (EcTrmL [3]): 33 µM; Kd (EcTrmL [4]): 27 µM; Kd (EcTrmL [5]): 45 µM; Kd (EcTrmL [6]): 39 µM; Kd (EcTrmL [7]): 29 µM; Kd (EcTrmL [8]): 19 µM; Kd (EcTrmL [9]): 30 µM
tRNA (Um34/Cm34) methyltransferase TrmL from E. coli, wild type (enzyme, UniProt P0AGJ7 1-157, looked up, TrmL, tRNA (Um34/Cm34) methyltransferase, E. coli; gene amplified from the genome of E. coli MT102; 157 amino acids as printed; also called EcTrmL; Yibk; source: E. coli BL21 (DE3), pET30b, purified (Ni-NTA, Superdex 75 gel filtration)) MLNIVLYEPEIPPNTGNIIRLCANTGFRLHIIEPMGFAWDDKRLRRAGLDYHEFTAVTRHHDYRAFLEAENPQRLFALTTKGTPAHSAVSYQDGDYLMFGPETRGLPASILDALPAEQKIRIPMVPDSRSMNLSNAVSVVVYEAWRQLGYPGAVLRD | – | stoichiometry N [10]: 2
EcTrmL-R59E (enzyme, E. coli, UniProt P0AGJ7 1-157, looked up, TrmL, E. coli, 157 amino acids, with R59E; source: E. coli BL21 (DE3), pET30b, purified (Ni-NTA, Superdex 75 gel filtration)) MLNIVLYEPEIPPNTGNIIRLCANTGFRLHIIEPMGFAWDDKRLRRAGLDYHEFTAVTEHHDYRAFLEAENPQRLFALTTKGTPAHSAVSYQDGDYLMFGPETRGLPASILDALPAEQKIRIPMVPDSRSMNLSNAVSVVVYEAWRQLGYPGAVLRD | 2 | –
EcTrmL-R46E (enzyme, E. coli, UniProt P0AGJ7 1-157, looked up, TrmL, E. coli, 157 amino acids, with R46E; source: E. coli BL21 (DE3), pET30b, purified (Ni-NTA, Superdex 75 gel filtration)) MLNIVLYEPEIPPNTGNIIRLCANTGFRLHIIEPMGFAWDDKRLREAGLDYHEFTAVTRHHDYRAFLEAENPQRLFALTTKGTPAHSAVSYQDGDYLMFGPETRGLPASILDALPAEQKIRIPMVPDSRSMNLSNAVSVVVYEAWRQLGYPGAVLRD | 2 | –
EcTrmL-R74E (enzyme, E. coli, UniProt P0AGJ7 1-157, looked up, TrmL, E. coli, 157 amino acids, with R74E; source: E. coli BL21 (DE3), pET30b, purified (Ni-NTA, Superdex 75 gel filtration)) MLNIVLYEPEIPPNTGNIIRLCANTGFRLHIIEPMGFAWDDKRLRRAGLDYHEFTAVTRHHDYRAFLEAENPQELFALTTKGTPAHSAVSYQDGDYLMFGPETRGLPASILDALPAEQKIRIPMVPDSRSMNLSNAVSVVVYEAWRQLGYPGAVLRD | 2 | –
EcTrmL-R104E (enzyme, E. coli, UniProt P0AGJ7 1-157, looked up, TrmL, E. coli, 157 amino acids, with R104E; source: E. coli BL21 (DE3), pET30b, purified (Ni-NTA, Superdex 75 gel filtration)) MLNIVLYEPEIPPNTGNIIRLCANTGFRLHIIEPMGFAWDDKRLRRAGLDYHEFTAVTRHHDYRAFLEAENPQRLFALTTKGTPAHSAVSYQDGDYLMFGPETEGLPASILDALPAEQKIRIPMVPDSRSMNLSNAVSVVVYEAWRQLGYPGAVLRD | 2 | –
EcTrmL-R64E (enzyme, E. coli, UniProt P0AGJ7 1-157, looked up, TrmL, E. coli, 157 amino acids, with R64E; source: E. coli BL21 (DE3), pET30b, purified (Ni-NTA, Superdex 75 gel filtration)) MLNIVLYEPEIPPNTGNIIRLCANTGFRLHIIEPMGFAWDDKRLRRAGLDYHEFTAVTRHHDYEAFLEAENPQRLFALTTKGTPAHSAVSYQDGDYLMFGPETRGLPASILDALPAEQKIRIPMVPDSRSMNLSNAVSVVVYEAWRQLGYPGAVLRD | 2 | –
EcTrmL-R129E (enzyme, E. coli, UniProt P0AGJ7 1-157, looked up, TrmL, E. coli, 157 amino acids, with R129E; source: E. coli BL21 (DE3), pET30b, purified (Ni-NTA, Superdex 75 gel filtration)) MLNIVLYEPEIPPNTGNIIRLCANTGFRLHIIEPMGFAWDDKRLRRAGLDYHEFTAVTRHHDYRAFLEAENPQRLFALTTKGTPAHSAVSYQDGDYLMFGPETRGLPASILDALPAEQKIRIPMVPDSESMNLSNAVSVVVYEAWRQLGYPGAVLRD | 2 | –
EcTrmL-R20E (enzyme, E. coli, UniProt P0AGJ7 1-157, looked up, TrmL, E. coli, 157 amino acids, with R20E; source: E. coli BL21 (DE3), pET30b, purified (Ni-NTA, Superdex 75 gel filtration)) MLNIVLYEPEIPPNTGNIIELCANTGFRLHIIEPMGFAWDDKRLRRAGLDYHEFTAVTRHHDYRAFLEAENPQRLFALTTKGTPAHSAVSYQDGDYLMFGPETRGLPASILDALPAEQKIRIPMVPDSRSMNLSNAVSVVVYEAWRQLGYPGAVLRD | 2 | –
EcTrmL-K42E (enzyme, E. coli, UniProt P0AGJ7 1-157, looked up, TrmL, E. coli, 157 amino acids, with K42E; source: E. coli BL21 (DE3), pET30b, purified (Ni-NTA, Superdex 75 gel filtration)) MLNIVLYEPEIPPNTGNIIRLCANTGFRLHIIEPMGFAWDDERLRRAGLDYHEFTAVTRHHDYRAFLEAENPQRLFALTTKGTPAHSAVSYQDGDYLMFGPETRGLPASILDALPAEQKIRIPMVPDSRSMNLSNAVSVVVYEAWRQLGYPGAVLRD | 2 | –
EcTrmL-R28E (enzyme, E. coli, UniProt P0AGJ7 1-157, looked up, TrmL, E. coli, 157 amino acids, with R28E; source: E. coli BL21 (DE3), pET30b, purified (Ni-NTA, Superdex 75 gel filtration)) MLNIVLYEPEIPPNTGNIIRLCANTGFELHIIEPMGFAWDDKRLRRAGLDYHEFTAVTRHHDYRAFLEAENPQRLFALTTKGTPAHSAVSYQDGDYLMFGPETRGLPASILDALPAEQKIRIPMVPDSRSMNLSNAVSVVVYEAWRQLGYPGAVLRD | 2 | –
EcTrmL-R45E (enzyme, E. coli, UniProt P0AGJ7 1-157, looked up, TrmL, E. coli, 157 amino acids, with R45E; source: E. coli BL21 (DE3), pET30b, purified (Ni-NTA, Superdex 75 gel filtration)) MLNIVLYEPEIPPNTGNIIRLCANTGFRLHIIEPMGFAWDDKRLERAGLDYHEFTAVTRHHDYRAFLEAENPQRLFALTTKGTPAHSAVSYQDGDYLMFGPETRGLPASILDALPAEQKIRIPMVPDSRSMNLSNAVSVVVYEAWRQLGYPGAVLRD | 2 | –
EcTrmL-K81E (enzyme, E. coli, UniProt P0AGJ7 1-157, looked up, TrmL, E. coli, 157 amino acids, with K81E; source: E. coli BL21 (DE3), pET30b, purified (Ni-NTA, Superdex 75 gel filtration)) MLNIVLYEPEIPPNTGNIIRLCANTGFRLHIIEPMGFAWDDKRLRRAGLDYHEFTAVTRHHDYRAFLEAENPQRLFALTTEGTPAHSAVSYQDGDYLMFGPETRGLPASILDALPAEQKIRIPMVPDSRSMNLSNAVSVVVYEAWRQLGYPGAVLRD | 2 | –
EcTrmL-R43E (enzyme, E. coli, UniProt P0AGJ7 1-157, looked up, TrmL, E. coli, 157 amino acids, with R43E; source: E. coli BL21 (DE3), pET30b, purified (Ni-NTA, Superdex 75 gel filtration)) MLNIVLYEPEIPPNTGNIIRLCANTGFRLHIIEPMGFAWDDKELRRAGLDYHEFTAVTRHHDYRAFLEAENPQRLFALTTKGTPAHSAVSYQDGDYLMFGPETRGLPASILDALPAEQKIRIPMVPDSRSMNLSNAVSVVVYEAWRQLGYPGAVLRD | 2 | –
